# Assay results as given in patent US7410949 (Hoffmann-La Roche, dated 2008).
# *1 amine or outer side, *2 acyl side, *3 side chain or, on linkers, in order; H or OH if unused. Bridges are numbered along the chain shown (N, C = ends). [ ]: non-standard residue; d: D form. Pqa = N-piperazin-1-yl-4(3H)-quinazolinone-3-acetic acid, O=C(Cn1cnc2ccc(N3CCN([*:1])CC3)cc2c1=O)[*:2]; Cms = N-(5-O-carboxymethyl)-serotonin, O=C(COc1ccc2[nH]cc(CCN[*:1])c2c1)[*:2]; Phe(F5) = N[C@@H](Cc1c(F)c(F)c(F)c(F)c1F)C(=O)O; 4Pal = N[C@@H](Cc1ccncc1)C(=O)O; 4‑MeOApc = not defined here; Nle = CCCC[C@H](N)C(=O)O
# B1: H-Ile-Lys-Pqa-Arg-His-Tyr-Leu-Asn-Leu-Ala-Thr-Arg-Gln-Arg-Tyr-NH2 (peptide)
# peptide: H-IK[Pqa]RHYLNLATRQRY-NH2
# SMILES: CC[C@H](C)[C@H](N)C(=O)N[C@@H](CCCCN)C(=O)N1CCN(c2ccc3ncn(CC(=O)N[C@@H](CCCNC(=N)N)C(=O)N[C@@H](Cc4c[nH]cn4)C(=O)N[C@@H](Cc4ccc(O)cc4)C(=O)N[C@@H](CC(C)C)C(=O)N[C@@H](CC(N)=O)C(=O)N[C@@H](CC(C)C)C(=O)N[C@@H](C)C(=O)N[C@H](C(=O)N[C@@H](CCCNC(=N)N)C(=O)N[C@@H](CCC(N)=O)C(=O)N[C@@H](CCCNC(=N)N)C(=O)N[C@@H](Cc4ccc(O)cc4)C(N)=O)[C@@H](C)O)c(=O)c3c2)CC1
# B2: H-Ile-Lys-Pqa-Arg-His-Tyr-Leu-Asn-Leu-Val-Thr-Arg-Gln-(D)Arg-Tyr-NH2 (peptide)
# peptide: IKRHYLNLVTRQRY
# modifications: (D)Arg at PYY position 35 (residue 11 of the second part); Pqa moiety between the two parts; C-terminal amide
# B3: Ac-Ile-Nle-Pqa-Arg-(4-Pal)-Tyr-Leu-Asn-Leu-Val-Thr-Arg-Gln-Arg-Tyr-NH2 (peptide)
# peptide: Ac-I[Nle][Pqa]R[4Pal]YLNLVTRQRY-NH2
# SMILES: CCCC[C@H](NC(=O)[C@@H](NC(C)=O)[C@@H](C)CC)C(=O)N1CCN(c2ccc3ncn(CC(=O)N[C@@H](CCCNC(=N)N)C(=O)N[C@@H](Cc4ccncc4)C(=O)N[C@@H](Cc4ccc(O)cc4)C(=O)N[C@@H](CC(C)C)C(=O)N[C@@H](CC(N)=O)C(=O)N[C@@H](CC(C)C)C(=O)N[C@H](C(=O)N[C@H](C(=O)N[C@@H](CCCNC(=N)N)C(=O)N[C@@H](CCC(N)=O)C(=O)N[C@@H](CCCNC(=N)N)C(=O)N[C@@H](Cc4ccc(O)cc4)C(N)=O)[C@@H](C)O)C(C)C)c(=O)c3c2)CC1
# B4: H-Ile-Lys-Pqa-Arg-His-Tyr-Leu-Asn-Leu-Val-Thr-Arg-Ala-Arg-Tyr-NH2 (peptide)
# peptide: H-IK[Pqa]RHYLNLVTRARY-NH2
# SMILES: CC[C@H](C)[C@H](N)C(=O)N[C@@H](CCCCN)C(=O)N1CCN(c2ccc3ncn(CC(=O)N[C@@H](CCCNC(=N)N)C(=O)N[C@@H](Cc4c[nH]cn4)C(=O)N[C@@H](Cc4ccc(O)cc4)C(=O)N[C@@H](CC(C)C)C(=O)N[C@@H](CC(N)=O)C(=O)N[C@@H](CC(C)C)C(=O)N[C@H](C(=O)N[C@H](C(=O)N[C@@H](CCCNC(=N)N)C(=O)N[C@@H](C)C(=O)N[C@@H](CCCNC(=N)N)C(=O)N[C@@H](Cc4ccc(O)cc4)C(N)=O)[C@@H](C)O)C(C)C)c(=O)c3c2)CC1
# B5: Cyclo Lys28-Aspu32 Ac-Ile-Nle-Cms-Arg-His-Tyr-Lys-Asn-Leu-Val-Asp-Arg-Gln-Arg-Tyr-NH2 (peptide)
# peptide: Ac-I[Nle][Cms]RHYKNLVDRQRY-NH2
# modifications: lactam 7-11
# SMILES: CCCC[C@H](NC(=O)[C@@H](NC(C)=O)[C@@H](C)CC)C(=O)NCCc1c[nH]c2ccc(OCC(=O)N[C@@H](CCCNC(=N)N)C(=O)N[C@@H](Cc3c[nH]cn3)C(=O)N[C@@H](Cc3ccc(O)cc3)C(=O)N[C@H]3CCCCNC(=O)C[C@@H](C(=O)N[C@@H](CCCNC(=N)N)C(=O)N[C@@H](CCC(N)=O)C(=O)N[C@@H](CCCNC(=N)N)C(=O)N[C@@H](Cc4ccc(O)cc4)C(N)=O)NC(=O)[C@H](C(C)C)NC(=O)[C@H](CC(C)C)NC(=O)[C@H](CC(N)=O)NC3=O)cc12
# B6: H-Ile-Lys-Pqa-Arg-His-Tyr-Leu-Asn-Leu-(D)Val-Thr-Arg-Gln-Arg-Tyr-NH2 (peptide)
# peptide: IKRHYLNLVTRQRY
# modifications: (D)Val at PYY position 31 (residue 7 of the second part); Pqa moiety between the two parts; C-terminal amide
# B7: Ac-Ile-Nle-Pqa-(2,3,4,5,6 Penta fluoro Phe)-His Tyr-Leu-Asn-Leu-Val-Thr-Arg-Gln-Arg-Tyr-NH2 (peptide)
# peptide: Ac-I[Nle][Pqa][Phe(F5)]HYLNLVTRQRY-NH2
# SMILES: CCCC[C@H](NC(=O)[C@@H](NC(C)=O)[C@@H](C)CC)C(=O)N1CCN(c2ccc3ncn(CC(=O)N[C@@H](Cc4c(F)c(F)c(F)c(F)c4F)C(=O)N[C@@H](Cc4c[nH]cn4)C(=O)N[C@@H](Cc4ccc(O)cc4)C(=O)N[C@@H](CC(C)C)C(=O)N[C@@H](CC(N)=O)C(=O)N[C@@H](CC(C)C)C(=O)N[C@H](C(=O)N[C@H](C(=O)N[C@@H](CCCNC(=N)N)C(=O)N[C@@H](CCC(N)=O)C(=O)N[C@@H](CCCNC(=N)N)C(=O)N[C@@H](Cc4ccc(O)cc4)C(N)=O)[C@@H](C)O)C(C)C)c(=O)c3c2)CC1
# Columns and labels:
# Assay in all cases: cell-based or functional assay
# Y4R = target: Y4R
# Y1R = target: Y1R
# Y1R, sequence (P25929 whole entry): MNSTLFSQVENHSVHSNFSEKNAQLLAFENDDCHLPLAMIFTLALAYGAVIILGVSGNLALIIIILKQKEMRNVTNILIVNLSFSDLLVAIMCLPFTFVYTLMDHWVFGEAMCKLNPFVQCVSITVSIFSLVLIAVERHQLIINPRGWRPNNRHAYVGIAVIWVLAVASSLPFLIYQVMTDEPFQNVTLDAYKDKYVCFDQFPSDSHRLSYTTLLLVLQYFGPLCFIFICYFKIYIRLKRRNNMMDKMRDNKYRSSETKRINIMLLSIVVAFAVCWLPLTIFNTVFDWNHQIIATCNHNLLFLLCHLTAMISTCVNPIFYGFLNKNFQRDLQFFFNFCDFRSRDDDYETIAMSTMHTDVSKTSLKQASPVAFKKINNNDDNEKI
# human NPY2 receptor = target: T1, human NPY2 receptor (human, UniProt P49146 1-381)
# T1 sequence (looked up): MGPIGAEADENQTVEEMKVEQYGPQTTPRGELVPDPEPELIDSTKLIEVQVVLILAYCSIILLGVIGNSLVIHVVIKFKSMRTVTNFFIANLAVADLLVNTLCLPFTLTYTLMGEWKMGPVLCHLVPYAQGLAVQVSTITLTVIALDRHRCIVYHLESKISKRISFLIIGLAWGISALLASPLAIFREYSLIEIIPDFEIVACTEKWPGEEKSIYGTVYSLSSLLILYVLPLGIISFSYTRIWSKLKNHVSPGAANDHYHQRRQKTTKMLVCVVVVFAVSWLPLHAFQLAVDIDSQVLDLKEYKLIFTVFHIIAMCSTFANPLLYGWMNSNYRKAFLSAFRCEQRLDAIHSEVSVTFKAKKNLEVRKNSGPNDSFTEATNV
Binder,Y4R EC50(nM) FLIPR (Y4R) [nM],Y1R EC50(nM) FLIPR (Y1R) [nM],Y2R EC50(nM) FLIPR (human NPY2 receptor) [nM],Y2R IC50(nM) cAMP (human NPY2 receptor) [nM]
IARHYLNLVTRQRY (Pqa moiety between the two parts; C-terminal amide) [H-Ile-Ala-Pqa-Arg-His-Tyr-Leu-Asn-Leu-Val-Thr-Arg-Gln-Arg-Tyr-NH2],> 5000,1000,,
B1,> 5000,> 5000,,
B2,> 5000,> 5000,,
IKGRHYLNLVTRQRY (Cms moiety between the two parts; C-terminal amide) [H-Ile-Lys-Gly-Cms-Arg-His-Tyr-Leu-Asn-Leu-Val-Thr-Arg-Gln-Arg-Tyr-NH2],,,4.16,0.085
Ac-I[Nle][Pqa]R[4‑MeOApc]YLNLVTRQRY-NH2 (reading uncertain) [Ac-Ile-Nle-Pqa-Arg-(4-MeOApc)-Tyr-Leu-Asn-Leu-Val-Thr-Arg-Gln-Arg-Tyr-NH2],> 5000,> 5000,,
B3,> 5000,> 5000,,
IARHYLNLVTRQRY (N-terminal acetyl; Pqa moiety between the two parts; C-terminal amide) [Ac-Ile-Ala-Pqa-Arg-His-Tyr-Leu-Asn-Leu-Val-Thr-Arg-Gln-Arg-Tyr-NH2],3020,> 5000,,
B4,> 5000,> 5000,,
B5,> 5000,> 5000,146,32.2
B6,> 5000,> 5000,,
B7,> 5000,> 5000,,
